Patent US20220073641A1, “FUSION PROTEIN OF ANTIBODY THAT RECOGNIZES CANCER CELLS AND MUTANT STREPTAVIDIN” (The University of Tokyo, priority 2018, published 2022)

Experiments:
MKN45 cells [1] = test: In vivo cytotoxicity test in MKN45 xenograft mouse models with 690 nm light; design: species or system nude mice; conditions: 100 μg complex of CEA-V2122 and Compound 1 via caudal vein; 690 nm 230 J/cm^2 at 6 and 24 hours; pathology on 7th day; FIG. 11, 12
From the text: MKN45 cells were subcutaneously transplanted into nude mice to produce xenograft mouse models. That is, 4-week-old female nude mice were purchased, and the mice were then acclimated for 1 week. Thereafter, the MKN45 cells were transplanted in a cell count of 2×10^5 cells per mouse into the subcutis thereof. […] Using an LED light source emitting a light having a wavelength of 690 nm (USHIO OPTO SEMICONDUCTORS, INC., LD690D-66-60-550.), T-Cube LED Driver (THORLABS, NC0713145), and T-CUBE 15V POWER SUPPLY (THORLABS, TPS001), 6 hours after the administration, the mice were irradiated with the light having a wavelength of 690 nm, so that the irradiation energy became 230 J/cm^2. Twenty-four hours after administration of the complex, the mice were irradiated again with the light having a wavelength of 690 nm, so that the irradiation energy became 230 J/cm^2. Individual mice were euthanized on the 7th day after administration of the complex and were then excised, and the tumor portions were subjected to pathological analysis. The specific method is as follows. That is, the subcutaneous tumor of each mouse and the peripheral tissues thereof were excised as a mass, and the mass was then immersed in a 4% paraformaldehyde solution (Wako Pure Chemical Industries, Ltd., 163-20145) at mom temperature overnight, so that the tissues were fixed. […]

MKN45 cells [2] = test: Cytotoxicity test using CEA-V2122 and photoactivatable compound-labeled modified biotins with 690 nm light; conditions: complex with CEA-V2122 (molar ratio 1:2), 0.039-10 μg/mL, 690±10 nm 100 J/cm^2, 48 hours, Cell Counting Kit-8; FIG. 8
Method: Specifically, MKN45 cells were seeded on a 96-well plate for cell culture, so that the cell count became 5×10^3 cells/well and the amount of the culture solution became 50 μL/well, and thereafter, the cells were cultured overnight. […] Regarding serial dilutions, 20 μg/mL was set to be an initial concentration, from 4-fold serial dilutions (5.0 μg/mL, 1.25 μg/mL, 0.312 μg/mL, and 0.078 μg/mL), 5 complex serial dilution solutions were prepared. Besides, a medium alone that contained no complex was used as a zero control.
Such complex serial dilution solutions were each added in an amount of 50 μL/well to the cells cultured overnight, so that the final concentrations became 10 μg/mL, 2.5 μg/mL, 0.625 μg/mL, 0.156 μg/mL, and 0.039 μg/mL One hour and two hours after addition of the complex, the cells were irradiated with a light, using LED emitting a light having a wavelength of 690±10 nm, so that the irradiation energy became 100 J/cm^2. […] Each condition was set to be n=3. The dosage and administration were determined in accordance with the instruction manuals included with the kit, and after addition of the reagent, the mixture was incubated for 1.5 hours at 37° C., in a CO2 incubator. Thereafter, the absorbance at 450 nm was measured, and the mean value was then calculated, followed by background collection. […]

[3] = biological target: T1, Recombinant Human CEACAM-5/CD66e Protein, CF (R & D SYSTEMS) (human, UniProt P06731 35-685); test: SPR (Biacore T200), CEACAM5 immobilized on CM5, CEA-V2122 as analyte, single-cycle kinetics, bivalent analysis fit
T1 construct: Purchased protein, amine-coupled to a CM5 chip; also called antigen CEACAM5
T1 sequence (looked up): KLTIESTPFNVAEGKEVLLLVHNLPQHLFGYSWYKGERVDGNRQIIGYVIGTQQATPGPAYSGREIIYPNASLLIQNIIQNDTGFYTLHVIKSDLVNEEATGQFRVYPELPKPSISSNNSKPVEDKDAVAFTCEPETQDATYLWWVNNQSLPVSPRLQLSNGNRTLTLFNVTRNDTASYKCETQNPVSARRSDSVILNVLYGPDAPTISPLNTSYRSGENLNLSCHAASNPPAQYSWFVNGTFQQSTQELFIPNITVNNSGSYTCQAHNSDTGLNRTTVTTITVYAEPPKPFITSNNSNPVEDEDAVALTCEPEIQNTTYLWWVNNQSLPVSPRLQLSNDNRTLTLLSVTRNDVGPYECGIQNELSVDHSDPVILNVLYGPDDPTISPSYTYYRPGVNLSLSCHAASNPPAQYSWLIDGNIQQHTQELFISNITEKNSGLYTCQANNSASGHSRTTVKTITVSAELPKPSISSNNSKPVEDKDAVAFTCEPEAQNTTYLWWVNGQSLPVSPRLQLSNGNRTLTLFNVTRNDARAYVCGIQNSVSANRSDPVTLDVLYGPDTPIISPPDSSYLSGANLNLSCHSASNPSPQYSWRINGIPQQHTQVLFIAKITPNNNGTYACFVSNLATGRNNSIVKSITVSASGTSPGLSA

[4] = SPR (Biacore T200) interaction between immobilized CEA-V2122 and a modified biotin; type: binding
Method: Furthermore, the interaction between CEA-V2122 and a modified biotin was also analyzed using Biacore T200. The modified biotin was specifically the title compound 14 described in Example 1 of International Publication WO2018/07239. In addition, the analysis method was specifically as follows. That is, an amine-coupling kit was used, a target value was set to be 5000 RU, and the purified CEA-V2122 was immobilized on Sensor Chip CM5.

CEACAM5 [5] = biological target: T2, CEACAM5 (Homo sapiens, UniProt P06731); test: SPR (Biacore T200) affinity of CEA-V2122 for immobilized antigen CEACAM5; type: binding; design: purchased R & D SYSTEMS
T2 sequence (P06731 35-676): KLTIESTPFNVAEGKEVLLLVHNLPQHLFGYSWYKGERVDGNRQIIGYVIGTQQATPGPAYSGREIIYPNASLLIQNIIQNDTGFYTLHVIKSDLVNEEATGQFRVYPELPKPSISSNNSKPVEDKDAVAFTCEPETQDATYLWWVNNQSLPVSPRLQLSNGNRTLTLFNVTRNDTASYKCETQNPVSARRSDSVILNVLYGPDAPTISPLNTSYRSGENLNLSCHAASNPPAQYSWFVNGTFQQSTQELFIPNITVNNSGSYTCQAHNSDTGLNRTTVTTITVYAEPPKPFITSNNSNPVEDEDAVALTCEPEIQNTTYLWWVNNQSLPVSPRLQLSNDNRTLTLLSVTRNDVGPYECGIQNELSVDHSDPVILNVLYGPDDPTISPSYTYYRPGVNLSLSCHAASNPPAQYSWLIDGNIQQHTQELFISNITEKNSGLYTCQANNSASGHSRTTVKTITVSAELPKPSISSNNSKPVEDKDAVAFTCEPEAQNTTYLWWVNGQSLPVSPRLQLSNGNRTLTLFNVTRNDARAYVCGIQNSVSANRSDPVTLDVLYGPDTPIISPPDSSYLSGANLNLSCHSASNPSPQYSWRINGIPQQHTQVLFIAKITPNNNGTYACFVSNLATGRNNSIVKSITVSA

CEACAM5 [6] = biological target: T2, CEACAM5; test: Cell staining of CEACAM5-expressing cell line using FITC-labeled CEA-V2122; type: cell-based
Method: In order to stain a CEACAM5 expression-positive cancer cell line, FTC labeling was carried out on the cell line, using 100 μg of a purified CEA-V2122 protein. Specifically, labeling was carried out using Fluorescein Labeling Kit—NH2 (DOJINDO LABORATORIES) in accordance with the dosage and administration described in the operating manual included with the kit, and the obtained product was defined to be CEA-V2122-FITC. Specific staining of the CEACAM5 expression-positive cancer cell line is as follows. That is, CEACAM5-positive human stomach cancer-derived MKN-45 cells and CEACAM5-negative human colon cancer-derived DLD1 cells were each seeded on a CELLSTAR, μClear, 96-well plate (Greiner) to a cell density of 2.0×10^4 cells/well, and thereafter, the cells were cultured overnight. Subsequently, a culture solution containing 20 nM CEA-V2122-FITC and 1 μM Hoechist was added to the 96-well plate to a concentration of 100 μL/well, and the obtained mixture was then reacted at 4° C. for 30 minutes. Thereafter, each image was taken using In Cell Analyzer 6000 (GE Healthcare Life Sciences).

[7] = single-cycle kinetics, bivalent analysis mode, CEA-V2122 immobilized, modified biotin analyte
[8] = single-cycle kinetics, bivalent analysis mode, CEACAM5 immobilized, CEA-V2122 analyte

## C[Si](C)(CCC[N+](CCCS(=O)(=O)[O-])(CCCS(=O)(=O)O)CCCS(=O)(=O)O)O[Si]1(O[Si](C)(C)CCC[N+](CCCS(=O)(=O)[O-])(CCCS(=O)(=O)O)CCCS(=O)(=O)O)N2/C3=N\C4=NC(=N\c5c6c(OCCCOC(=O)NCCCCCC(=O)NCCOCCOCCN(CC(=O)NCCCCNC(=O)CCCC[C@@H]7SC[C@@H]8NC(=N)N[C@@H]87)CC(=O)NCCCCNC(=O)CCCC[C@@H]7SC[C@@H]8NC(=N)N[C@@H]87)cccc6c(n51)/N=C1\N=C(NC2c2ccccc23)c2ccccc21)/c1ccccc14 (stereo partly drawn) [Compound 1]
MKN45 cells [1]
  tumor necrosis: necrosis can be induced to the tumor of the xenograft mouse model
MKN45 cells [2]
  cytotoxicity: exhibits cytotoxicity in a concentration-dependent manner

B1: CEA-V2122 (scFv)
chain: QVKLEQSGAEVVKPGASVKLSCKASGFNIKDSYMHWLRQGPGQRLEWIGWIDPENGDTEYAPKFQGKATFTTDTSANTAYLGLSSLRPEDTAVYYCNEGTPTGPYYFDYWGQGTLVTVSSGGGGSGGGGSGGGGSENVLTQSPSSMSVSVGDRVNIACSASSSVPYMHWLQQKPGKSPKLLIYLTSNLASGVPSRFSGSGSGTDYSLTISSVQPEDAATYYCQQRSSYPLTFGGGTKLEIKGGGGSGGGGAEAGITGTWSDQLGDTFIVTAGADGALTGTYENAVGGAESRYVLTGRYDSAPATDGSGTALGWTVAWKNNSKNAHSATTWSGQYVGGADAKINTQWLLTSGTTNANAWKSTLVGHDTFTKVKPSAASHHHHHH
notes: also called CEA-Cupid; scFv-V2122
[3]
  Kd: 1.08 pM

B2: CEA-V2122: scFv-type anti-CEACAM5 antibody bound with mutant streptavidin V2122 via linker GGGGSGGGG; SEQ ID NO: 3 (protein)
chain: B1 chain
[4]; from the KD value in the sensorgram, FIG. 4
  binding to a modified biotin: strongly binds to a modified biotin
[4]; [7]
  ka1: 3.792E+4
  kd1: 4.424E−6
CEACAM5 [5]; bivalent analysis mode
  KD=kd1/ka1: 1.078E−12
CEACAM5 [5]; from the KD value in the sensorgram, FIG. 3
  binding to CEACAM5: strongly binds to CEACAM5
CEACAM5 [5]; [8]
  ka1: 3.208E+5
  kd1: 3.461E−7

B3: CEA-V2122-FITC: purified CEA-V2122 protein labeled with Fluorescein Labeling Kit—NH2 (protein)
chain: B1 chain
CEACAM5 [6]; 20 nM, 4° C., 30 minutes, CEACAM5-positive MKN-45 vs CEACAM5-negative DLD1 cells, FIG. 5
  recognition of CEACAM5 on cells: specifically recognizes CEACAM5 on the surface of the cell membrane
CEACAM5 [6]; MKN45 cells, time series, FIG. 6
  localisation of CEACAM5 after binding: the CEACAM5 stays on the surface of the cell membrane
